Data on two molecules can be found in patent publication US20150266957A1.

Common to all, as to assay: cell-based or functional assay
The target in assay [1] is cynomolgus monkey PROKR1 (cynomolgus monkey (Macaca fascicularis)) (UniProt G7PMD0).
Assay [2] has as its target mouse PROKR1 (mouse (Mus musculus)) (UniProt Q9JKL1).
A further assay has as its target human PROKR1 (human) (UniProt Q8TCW9).
The target of assay [3] is rat PROKR1 (rat (Rattus norvegicus)) (UniProt Q8R416).
Chain of rat PROKR1 (rat (Rattus norvegicus)) (Q8R416 whole entry): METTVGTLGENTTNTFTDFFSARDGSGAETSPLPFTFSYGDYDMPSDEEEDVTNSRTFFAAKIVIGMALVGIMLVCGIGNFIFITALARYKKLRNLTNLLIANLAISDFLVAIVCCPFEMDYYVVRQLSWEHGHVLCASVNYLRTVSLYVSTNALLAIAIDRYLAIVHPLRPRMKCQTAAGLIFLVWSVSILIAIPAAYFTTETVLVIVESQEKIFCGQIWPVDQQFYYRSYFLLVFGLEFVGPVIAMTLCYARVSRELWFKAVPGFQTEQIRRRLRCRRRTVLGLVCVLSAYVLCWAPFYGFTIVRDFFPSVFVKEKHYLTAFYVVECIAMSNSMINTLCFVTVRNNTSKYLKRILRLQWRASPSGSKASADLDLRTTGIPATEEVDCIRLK

Chain of mouse PROKR1 (mouse (Mus musculus)) (Q9JKL1 whole entry): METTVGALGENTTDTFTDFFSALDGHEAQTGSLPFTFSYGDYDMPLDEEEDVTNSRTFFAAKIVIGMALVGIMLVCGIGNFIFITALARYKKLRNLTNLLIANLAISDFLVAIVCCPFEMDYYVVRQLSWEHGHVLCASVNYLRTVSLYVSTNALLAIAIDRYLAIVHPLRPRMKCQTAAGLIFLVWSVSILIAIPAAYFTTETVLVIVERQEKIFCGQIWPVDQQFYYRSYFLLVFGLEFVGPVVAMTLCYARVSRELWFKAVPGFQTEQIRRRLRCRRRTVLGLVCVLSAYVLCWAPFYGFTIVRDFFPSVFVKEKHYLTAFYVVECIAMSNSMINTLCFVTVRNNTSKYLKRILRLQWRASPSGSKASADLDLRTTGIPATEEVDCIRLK
Chain of human PROKR1 (human) (Q8TCW9 whole entry): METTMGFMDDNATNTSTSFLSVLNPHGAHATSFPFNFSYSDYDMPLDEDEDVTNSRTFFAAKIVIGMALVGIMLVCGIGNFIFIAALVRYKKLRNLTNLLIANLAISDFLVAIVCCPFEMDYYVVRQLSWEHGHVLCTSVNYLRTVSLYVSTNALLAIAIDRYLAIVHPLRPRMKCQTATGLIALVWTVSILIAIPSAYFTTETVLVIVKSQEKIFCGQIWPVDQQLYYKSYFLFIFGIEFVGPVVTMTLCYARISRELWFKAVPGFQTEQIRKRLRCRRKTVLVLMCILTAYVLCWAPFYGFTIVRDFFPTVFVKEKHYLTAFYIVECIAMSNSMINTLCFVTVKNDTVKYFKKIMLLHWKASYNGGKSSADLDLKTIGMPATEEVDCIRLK
Chain of cynomolgus monkey PROKR1 (cynomolgus monkey (Macaca fascicularis)) (G7PMD0 entry or part of it): as the sequence (Q8TCW9 whole entry) above, with V22A, T31A, S40G, I82V, V135I, K210R, V246F, D348N, V350A counted along it

B1: human prokineticin 2 (ligand, UniProt Q9HC23-2 28-108, looked up)
chain: AVITGACDKDSQCGGGMCCAVSIWVKSIRICTPMGKLGDSCHPLTRKVPFFGRRMHHTCPCLPGLACLRTSFNRFICLAQK
In the case of B1, the EC50 (nM), calcium mobilization, 293/mfPROKR1, Experiment 3 in assay [1] was 0.1 nM. In assay [2], the Ligand EC50 (nM), calcium flux, CHO/mPROKR1 (induced) is 9.6 nM and the Ligand EC50 (nM), calcium flux, CHO/mPROKR1 (non-induced) came to 0.8 nM. In the assay with human PROKR1 (human), the EC50 (nM), calcium mobilization, 293/hPROKR1, Experiment 1 was found to be 30.7 nM and the EC50 (nM), calcium mobilization, 293/hPROKR1, Experiment 3 is 0.6 nM.

B2: human prokineticin 1 (ligand, UniProt P58294 20-105, looked up)
chain: AVITGACERDVQCGAGTCCAISLWLRGLRMCTPLGREGEECHPGSHKVPFFRKRKHHTCPCLPNLLCSRFPDGRYRCSMDLKNINF
B2: in assay [1], the EC50 (nM), calcium mobilization, 293/mfPROKR1, Experiment 1 is 69 nM and the EC50 (nM), calcium mobilization, 293/mfPROKR1, Experiment 3 is 5 nM. Further, the EC50, calcium flux, 293/rPROKR1, no antibody in assay [3] amounted to 0.7 nM. Further, in assay [2], the EC50, calcium flux, 293/mPROKR1, no antibody is 0.9 nM; the Ligand EC50 (nM), calcium flux, CHO/mPROKR1 (induced) was found to be 1.5 nM; the Ligand EC50 (nM), calcium flux, CHO/mPROKR1 (non-induced) was found to be 8.3 nM. Besides, in the assay with human PROKR1 (human), the EC50 (nM), calcium mobilization, 293/hPROKR1, Experiment 1 was determined as 6.2 nM; the EC50 (nM), calcium mobilization, 293/hPROKR1, Experiment 2 came to 14.3 nM; the EC50 (nM), calcium mobilization, 293/hPROKR1, Experiment 3 was 2.2 nM.
